Reference: PMC3773880

Target: Rgps of P. gingivalis HG66 (all gingipain activity released in soluble, non-glycosylated form into media)

B1: PD_(RgpB), recombinant N-terminal prodomain of RgpB, P95493 25-229 (domain or fragment)
chain: GPLGSQPAERGRNPQVRLLSAEQSMSKVQFRMDNLQFTGVQTSKGVAQVPTFTEGVNISEKGTPILPILSRSLAVSETRAMKVEVVSSKFIEKKDVLIAPSKGVISRAENPDQIPYVYGQSYNEDKFFPGEIATLSDPFILRDVRGQVVNFAPLQYNPVTKTLRIYTEIVVAVSETAEAGQNTISLVKNSTFTGFEDIYKSVFMNYEATR
In the case of B1, the IC50 of inhibition of Rgp activity (L-BAPNA): HG66 (cell-free culture medium) is reported as 12 nM and the IC50 of inhibition of Rgp activity (L-BAPNA): HG66 (whole culture) is reported as 116 nM.
